The source of these data is publication PMC8566583.

The term Kd denotes the constant that tells how readily two partners part at equilibrium.

“And” between values parts separate entries of the source, which are not always exact repeats. Identical values can stand only once.

One assay concerns the target PARP1 (Homo sapiens) (UniProt P09874). Conditions: cited from earlier work.
Another assay deals with PARP2 (Homo sapiens) (UniProt Q9UGN5). Conditions: cited from earlier work.
The target in assay [1] is Recombinant wild-type murine PARP2 (murine) (UniProt O88554).
For assay [2], the target named is Recombinant wild-type human PARP1 (human) (UniProt P09874).

UniProt Q9UGN5, sequence (Q9UGN5 whole entry): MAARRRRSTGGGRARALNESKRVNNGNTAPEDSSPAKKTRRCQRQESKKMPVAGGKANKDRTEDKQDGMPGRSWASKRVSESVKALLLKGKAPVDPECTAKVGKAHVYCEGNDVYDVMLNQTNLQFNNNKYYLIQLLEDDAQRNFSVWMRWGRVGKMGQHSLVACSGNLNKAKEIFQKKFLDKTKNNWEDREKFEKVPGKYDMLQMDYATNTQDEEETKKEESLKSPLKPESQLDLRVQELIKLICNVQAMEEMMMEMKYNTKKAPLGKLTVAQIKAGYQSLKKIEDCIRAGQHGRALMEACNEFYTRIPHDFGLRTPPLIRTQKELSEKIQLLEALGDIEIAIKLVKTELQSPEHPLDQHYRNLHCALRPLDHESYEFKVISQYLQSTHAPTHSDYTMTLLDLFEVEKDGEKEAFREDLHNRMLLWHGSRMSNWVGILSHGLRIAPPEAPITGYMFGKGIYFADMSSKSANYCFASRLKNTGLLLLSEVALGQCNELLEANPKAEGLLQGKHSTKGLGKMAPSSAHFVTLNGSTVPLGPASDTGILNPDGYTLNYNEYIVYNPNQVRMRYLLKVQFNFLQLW
UniProt O88554, sequence (O88554 whole entry): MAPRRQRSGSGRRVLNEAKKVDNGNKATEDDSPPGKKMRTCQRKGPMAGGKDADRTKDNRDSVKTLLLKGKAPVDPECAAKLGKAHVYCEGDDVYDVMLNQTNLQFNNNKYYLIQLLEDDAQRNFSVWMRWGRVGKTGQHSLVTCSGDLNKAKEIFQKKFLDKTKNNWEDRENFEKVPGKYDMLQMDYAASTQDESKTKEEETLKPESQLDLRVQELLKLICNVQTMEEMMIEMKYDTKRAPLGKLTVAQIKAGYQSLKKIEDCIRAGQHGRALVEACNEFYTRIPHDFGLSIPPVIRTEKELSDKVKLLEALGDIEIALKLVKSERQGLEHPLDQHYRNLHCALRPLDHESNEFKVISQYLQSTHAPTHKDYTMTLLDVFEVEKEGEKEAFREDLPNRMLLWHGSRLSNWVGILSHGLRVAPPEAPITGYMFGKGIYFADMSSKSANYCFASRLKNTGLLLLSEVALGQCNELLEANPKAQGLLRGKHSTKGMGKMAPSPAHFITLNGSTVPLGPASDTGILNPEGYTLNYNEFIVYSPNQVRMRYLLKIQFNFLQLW

Turning to HPF1 (from UniProt Q9NWY4), the Kd with PARP1 (Homo sapiens) was > 3000 nM and 790 nM; with PARP2 (Homo sapiens), 280 nM.

B1: histone PARylation factor 1 (HPF1), recombinant human (natural protein)
chain: MVGGGGKRRPGGEGPQCEKTTDVKKSKFCEADVSSDLRKEVENHYKLSLPEDFYHFWKFCEELDPEKPSDSLSASLGLQLVGPYDILAGKHKTKKKSTGLNFNLHWRFYYDPPEFQTIIIGDNKTQYHMGYFRDSPDEFPVYVGINEAKKNCIIVPNGDNVFAAVKLFLTKKLREITDKKKINLLKNIDEKLTEAARELGYSLEQRTVKMKQRDKKVVTKTFHGAGLVVPVDKNDVGYRELPETDADLKRICKTIVEAASDEERLKAFAPIQEMMTFVQFANDECDYGMGLELGMDLFCYGSHYFHKVAGQLLPLAYNLLKRNLFAEIIEEHLANRSQENIDQLAA
As to B1, the DNA-independent autoPARylation level of PARP2 (500 nM, 1 uM [32P]NAD+, no DNA or NCP) with HPF1 from 60 nM to 16 uM, relative to no HPF1; maximal effect (at a 4-fold excess of HPF1) in assay [1] is 2.4 fold. Besides, the DNA-independent autoPARylation level of PARP1 (500 nM, 1 uM [32P]NAD+, no DNA or NCP) with HPF1 from 60 nM to 16 uM, relative to no HPF1; maximal effect in assay [2] stood at 1.6 fold.
